Test results as given in article PMC11154964, “The Light Chain Allosterically Enhances the Protease Activity of Murine Urokinase-Type Plasminogen Activator” (Biochemistry, 2024).
Ends that are not written are not given here.

Experiments:
[1] = biological target: protease domain (heavy chain) of murine urokinase-type plasminogen activator (muPA WT, after plasmin cleavage) (mouse (murine)) (UniProt P06869)
[2] = biological target: T1, protease domain (heavy chain) of murine urokinase-type plasminogen activator (muPA WT, after plasmin cleavage) (mouse (murine), UniProt P06869 180-433, C281 (122CT) disulfide-bonded to C149 (1CT) of the light chain); assay: HDX-MS; two-chain muPA (light chain disulfide-bonded to the protease domain; WT 20 μM, F(−2)CTA 8.5 μM, K4CTG 13 μM) compared with No-Light-Chain muPA (10 μM); PBS pH 7.4, 22 °C, deuteration 0, 30, 60, 120, 600 s; conditions: both partners purified
T1 construct: Stood in the assay as one of the two chains of muPA WT or of its light-chain mutants; also called serine protease domain
T1 sequence (P06869 180-433): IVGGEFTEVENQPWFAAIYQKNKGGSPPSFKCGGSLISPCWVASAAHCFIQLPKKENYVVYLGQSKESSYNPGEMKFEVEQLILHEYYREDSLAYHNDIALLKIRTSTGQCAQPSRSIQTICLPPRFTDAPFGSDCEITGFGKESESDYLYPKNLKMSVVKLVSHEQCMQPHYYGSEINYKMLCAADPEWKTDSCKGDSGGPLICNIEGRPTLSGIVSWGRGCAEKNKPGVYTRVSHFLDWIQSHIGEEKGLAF

[3] = biological target: T1, protease domain (heavy chain) of murine …; assay: cell-based or functional assay

protease domain (heavy chain) of murine urokinase-type plasminogen activator (muPA WT, after plasmin cleavage) (mouse (murine)), sequence (P06869 180-433): as above

Molecule: light chain of muPA with the mutation F(−2CT)A (from UniProt P06869 153-179) (domain or fragment)
- kcat of the amidolytic activity (chromogenic substrate S2444) of two-chain muPA F(−2CT)A [1]: 12 s^–1

B1: disordered light chain of murine urokinase-type plasminogen activator (muPA WT, after plasmin cleavage) (domain or fragment, mouse (murine), UniProt P06869 153-179, looked up)
chain: SLSKKPSSSVDQQGFQCGQKALRPRFK
modifications: not fully specified; also: disulfide to Cys281 of the protease domain chain, disulfide at 17, other end not in the chain
notes: Stood in the assay as one of the two chains of muPA WT (133-413), tethered to m2 by a disulfide bond; The construct has an N-terminal 6xHis-tag and a TEV protease cleavage site; also called disordered linker; light chain of muPA WT
- binding result [2]: binds

B2: light chain of muPA with the mutation K4CTG (domain or fragment, mouse (murine), UniProt P06869 153-179, looked up)
chain: SLSKKPSSSVDQQGFQCGQGALRPRFK
modifications: not fully specified; also: disulfide to Cys281 of the protease domain chain, disulfide at 17, other end not in the chain
- kcat of the amidolytic activity (chromogenic substrate S2444) of two-chain muPA K4CTG [3]: 22 s^–1
